# IntAct's records for PubMed 21391237
# B1: Transmembrane protein 43 (Homo sapiens), Q9BTV4 (parent)
# chain: MAANYSSTSTRREHVKVKTSSQPGFLERLSETSGGMFVGLMAFLLSFYLIFTNEGRALKTATSLAEGLSLVVSPDSIHSVAPENEGRLVHIIGALRTSKLLSDPNYGVHLPAVKLRRHVEMYQWVETEESREYTEDGQVKKETRYSYNTEWRSEIINSKNFDREIGHKNPSAMAVESFMATAPFVQIGRFFLSSGLIDKVDNFKSLSLSKLEDPHVDIIRRGDFFYHSENPKYPEVGDLRVSFSYAGLSGDDPDLGPAHVVTVIARQRGDQLVPFSTKSGDTLLLLHHGDFSAEEVFHRELRSNSMKTWGLRAAGWMAMFMGLNLMTRILYTLVDWFPVFRDLVNIGLKAFAFCVATSLTLLTVAAGWLFYRPLWALLIAGLALVPILVARTRVPAKKLE
# partner: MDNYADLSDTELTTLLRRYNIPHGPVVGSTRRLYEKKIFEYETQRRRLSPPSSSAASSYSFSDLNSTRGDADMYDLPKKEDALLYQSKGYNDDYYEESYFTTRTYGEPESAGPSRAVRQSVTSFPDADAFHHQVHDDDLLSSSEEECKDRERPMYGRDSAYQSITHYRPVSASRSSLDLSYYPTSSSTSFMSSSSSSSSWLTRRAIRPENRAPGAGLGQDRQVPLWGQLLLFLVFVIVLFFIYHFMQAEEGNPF
# B2: Transmembrane protein 43 (Homo sapiens), Q9BTV4 (parent)
# chain: B1 chain
# Variants of: B1
# Settings: with emd_human EMD
row,Variant,effect of a mutation on the interaction
1,E85K,with no effect
2,I91V,with no effect

# Variants of: B1
# Settings: with emd_human EMD
# Remark: another data set of the same source
row,Variant,effect of a mutation on the interaction
1,E85K,decreasing interaction strength
2,I91V,decreasing interaction strength

# Variants of: B2
# Settings: with sun2_human SUN2, Q9UH99
# Sequence of sun2_human SUN2, Q9UH99 (Q9UH99 whole entry): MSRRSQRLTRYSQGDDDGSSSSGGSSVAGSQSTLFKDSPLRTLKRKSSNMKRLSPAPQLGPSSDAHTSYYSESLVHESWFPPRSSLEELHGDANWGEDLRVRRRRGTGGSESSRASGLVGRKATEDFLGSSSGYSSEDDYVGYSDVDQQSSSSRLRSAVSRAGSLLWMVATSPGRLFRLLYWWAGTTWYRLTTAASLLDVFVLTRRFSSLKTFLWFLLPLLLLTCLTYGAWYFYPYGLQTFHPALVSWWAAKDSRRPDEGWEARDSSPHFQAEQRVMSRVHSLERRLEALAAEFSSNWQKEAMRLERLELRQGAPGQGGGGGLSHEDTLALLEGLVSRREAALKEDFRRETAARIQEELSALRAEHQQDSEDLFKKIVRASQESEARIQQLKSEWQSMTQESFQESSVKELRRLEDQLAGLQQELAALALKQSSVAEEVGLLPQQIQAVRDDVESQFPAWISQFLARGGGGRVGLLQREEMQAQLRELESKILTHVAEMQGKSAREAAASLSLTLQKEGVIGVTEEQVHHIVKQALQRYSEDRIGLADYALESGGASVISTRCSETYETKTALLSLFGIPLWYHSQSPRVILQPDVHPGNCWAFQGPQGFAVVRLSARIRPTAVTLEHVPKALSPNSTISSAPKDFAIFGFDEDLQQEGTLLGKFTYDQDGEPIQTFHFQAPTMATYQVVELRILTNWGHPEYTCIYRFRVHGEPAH
row,Variant,effect of a mutation on the interaction
1,E85K,decreasing interaction strength
2,I91V,decreasing interaction strength
